Reference: article PMC12112554, “Estrogen-Related Receptor Potential Target Genes in Silkworm (Bombyx mori): Insights into Metabolic Regulation”

T1: BmERR DBD (Bombyx mori, UniProt A0A1B1M0R7 103-178)
T1 sequence: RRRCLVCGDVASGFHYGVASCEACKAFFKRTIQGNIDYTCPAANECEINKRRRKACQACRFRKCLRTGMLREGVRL

B1: GK CRE1 (dsDNA)
DNA 1: CCCCATGACCTTCGCCGG
DNA 2: CCGGCGAAGGTCATGGGG
B2: HPD CRE1 (dsDNA)
DNA 1: ACACGCGCCCTTTATATA
DNA 2: TATATAAAGGGCGCGTGT
B3: HPD CRE2 (dsDNA)
DNA 1: GGACTATAACCTCGTCTCTT
DNA 2: AAGAGACGAGGTTATAGTCC
B4: HPD CRE3 (dsDNA)
DNA 1: TCCACAAACGTCAATAGC
DNA 2: GCTATTGACGTTTGTGGA
B5: Chsy1 CRE1 (dsDNA)
DNA 1: TCTCACAAGGTTGATGTC
DNA 2: GACATCAACCTTGTGAGA
B6: Aldh1b1 CRE3 (dsDNA)
DNA 1: CCTGGTTAAGGTTAGAAGTC
DNA 2: GACTTCTAACCTTAACCAGG
B7: GK CRE3 (dsDNA)
DNA 1: GATTGTCAATGTCAATGTCATGAACA
DNA 2: TGTTCATGACATTGACATTGACAATC
B8: Akr2e CRE2 (dsDNA)
DNA 1: ACTAGTTAAGGTTACGCTGA
DNA 2: TCAGCGTAACCTTAACTAGT
B9: Ca7 CRE1 (dsDNA)
DNA 1: TAATGTGACTTTGAATCG
DNA 2: CGATTCAAAGTCACATTA
B10: Ca7 CRE2 (dsDNA)
DNA 1: TTTATTGCCCTTGTAGGC
DNA 2: GCCTACAAGGGCAATAAA
B11: Ca7 CRE3 (dsDNA)
DNA 1: GACTTCGAATGTCATGTCGC
DNA 2: GCGACATGACATTCGAAGTC
B12: Ca7 CRE4 (dsDNA)
DNA 1: ATTCAATAGGTTATTTCT
DNA 2: AGAAATAACCTATTGAAT
B13: Acyl CRE1 (dsDNA)
DNA 1: TATATTGCCCTTGTAAGT
DNA 2: ACTTACAAGGGCAATATA
B14: UGT46A2 CRE2 (dsDNA)
DNA 1: TCGTCGTAACCTTAAAGATA
DNA 2: TATCTTTAAGGTTACGACGA
B15: UGT33D8 CRE2 (dsDNA)
DNA 1: TCAGGCAAGGTCAAAGCC
DNA 2: GGCTTTGACCTTGCCTGA
B16: TPS CRE3 (dsDNA)
DNA 1: GGCTGTAACCTTGTCCTC
DNA 2: GAGGACAAGGTTACAGCC
B17: GlyP CRE3 (dsDNA)
DNA 1: ACGTCCAACGTCAAACCA
DNA 2: TGGTTTGACGTTGGACGT
B18: Atgl CRE3 (dsDNA)
DNA 1: CGCTCTGACATTGAAAAG
DNA 2: CTTTTCAATGTCAGAGCG
B19: FAH CRE1 (dsDNA)
DNA 1: TTTTTCCAAGGACGTTTGAG
DNA 2: CTCAAACGTCCTTGGAAAAA
B20: Tret1 CRE1 (dsDNA)
DNA 1: AGCTTCTCCTTGACGTGTAG
DNA 2: CTACACGTCAAGGAGAAGCT
B21: Tret1 CRE2 (dsDNA)
DNA 1: TTTTTGTAACCTTAAACTCCT
DNA 2: AGGAGTTTAAGGTTACAAAAA
B22: Tret1 CRE3 (dsDNA)
DNA 1: GCGGACTCACAAGGTCCTACCA
DNA 2: TGGTAGGACCTTGTGAGTCCGC

Biological target: T1, BmERR DBD
Experiment: EMSA; EMSA, Beyotime kit buffer (composition not given), 25 °C 25 min; 5% native PAGE in 1x TBE (45 mM Tris-borate, 1 mM EDTA, pH 8.3)
Details: protein: recombinant; label: biotin 3'; blunt

| Binder | binding result |
| --- | --- |
| B1 | binds |
| B2 | binds |
| B3 | binds |
| B4 | binds |
| B5 | binds |
| B6 | binds |
| B7 | binds |
| B8 | binds |
| B9 | binds |
| B10 | binds |
| B11 | binds |
| B12 | binds |
| B13 | binds |
| B14 | binds |
| B15 | binds |
| B16 | binds |
| B17 | binds |
| B18 | binds |
| B19 | binds |

Biological target: T1, BmERR DBD
Experiment: EMSA; not among Table 2 motifs; EMSA, Beyotime kit buffer (composition not given), 25 °C 25 min; 5% native PAGE in 1x TBE (45 mM Tris-borate, 1 mM EDTA, pH 8.3)
Details: protein: recombinant; label: biotin 3'; blunt

| Binder | binding result |
| --- | --- |
| B20 | binds |
| B21 | binds |

Biological target: T1, BmERR DBD
Experiment: EMSA; listed in Table 2; text names only CRE1 and CRE2; EMSA, Beyotime kit buffer (composition not given), 25 °C 25 min; 5% native PAGE in 1x TBE (45 mM Tris-borate, 1 mM EDTA, pH 8.3)
Details: protein: recombinant; label: biotin 3'; blunt

| Binder | binding result |
| --- | --- |
| B22 | binds |
